Experimental data published in article PMC6946805.

Biological target: Plasmodium yoelii erythrocyte-binding-like protein (PyEBL), C741 allele of P. yoelii nigeriensis strain N67C, HA::Flag-tagged (Plasmodium yoelii nigeriensis strain N67C)
Assay: co-IP; anti-HA antibody immunoprecipitation of HA-tagged PyEBL from supernatants and solubilized pellets of iRBCs of all parasite stages lysed with saponin (0.1%) and centrifuged (1,455 x g, 4°C, 10 min); Western blot of the precipitates with anti-band 3 or anti-TER119 antibody

B1: band 3 (natural protein)
chain: MGDMRDHEEVLEIPDRDSEEELENIIGQIAYRDLTIPVTEMQDPEALPTEQTATDYVPSSTSTPHPSSGQVYVELQELMMDQRNQELQWVEAAHWIGLEENLREDGVWGRPHLSYLTFWSLLELQKVFSKGTFLLGLAETSLAGVANHLLDCFIYEDQIRPQDREELLRALLLKRSHAEDLGNLEGVKPAVLTRSGGASEPLLPHQPSLETQLYCGQAEGGSEGPSTSGTLKIPPDSETTLVLVGRANFLEKPVLGFVRLKEAVPLEDLVLPEPVGFLLVLLGPEAPHVDYTQLGRAAATLMTERVFRITASMAHNREELLRSLESFLDCSLVLPPTDAPSEKALLNLVPVQKELLRRRYLPSPAKPDPNLYNTLDLNGGKGGPGDEDDPLRRTGRIFGGLIRDIRRRYPYYLSDITDALSPQVLAAVIFIYFAALSPAVTFGGLLGEKTRNLMGVSELLISTAVQGILFALLGAQPLLVLGFSGPLLVFEEAFFSFCESNNLEYIVGRAWIGFWLILLVMLVVAFEGSFLVQYISRYTQEIFSFLISLIFIYETFSKLIKIFQDYPLQQTYAPVVMKPKPQGPVPNTALFSLVLMAGTFLLAMTLRKFKNSTYFPGKLRRVIGDFGVPISILIMVLVDSFIKGTYTQKLSVPDGLKVSNSSARGWVIHPLGLYRLFPTWMMFASVLPALLVFILIFLESQITTLIVSKPERKMIKGSGFHLDLLLVVGMGGVAALFGMPWLSATTVRSVTHANALTVMGKASGPGAAAQIQEVKEQRISGLLVSVLVGLSILMEPILSRIPLAVLFGIFLYMGVTSLSGIQLFDRILLLFKPPKYHPDVPFVKRVKTWRMHLFTGIQIICLAVLWVVKSTPASLALPFVLILTVPLRRLILPLIFRELELQCLDGDDAKVTFDEENGLDEYDEVPMPV
  band 3 signal divided by anti-HA signal, ratio N67C/N67, pellet fraction (fold (N67C over N67)): 3.3
  band 3 signal divided by anti-HA signal, ratio N67C/N67, supernatant fraction (fold (N67C over N67)): 3.1
